What all share (assay type): cell-based
One assay addresses T1, pSmad3 (Mus musculus, UniProt Q8BUN5).
T1 construct: endogenous in cells; host or cells: AKR-2B cells
Description: Nuclear import of pSmad3 (nuclear fractions Western, immunofluorescence) in AKR-2B cells. As to conditions: 90 minutes transduction, TGFβ 5 ng/mL 1 hour. On the procedure:
FIGS. 1A-C. SH3 domain of sorting nexin 9 (SNX9) specifically binds pSmad3 and prevents nuclear import. (A) Cartoon depicting domains in full length (FL) SNX9 and constructs used for GST pull down assays. Lysates from AKR-2B cells untreated (−) or stimulated (+) for 45 minutes with 5 ng/mL TGFβ were incubated with GST beads or the indicated fusion polypeptides immobilized on GST beads. Bound polypeptides were eluted and assessed by Western analysis for pSmad3 or pSmad2. Cell lysate reflects signal obtained from 10 μg total protein. (B) AKR-2B cells were transduced for 90 minutes with the indicated concentrations of the TAT-SNX9(SH3) fusion polypeptides. […] Quantitation of nuclear pSmads was performed with Image J software and represents the mean+/−sd of two experiments (Right). […] Quantitation of nuclear Smad3 from 30 cells in each of two experiments (Right).
(§1) FIGS. 3A-E. Inhibition of Smad3 signaling by a defined region of the SH3 domain in SNX9. […] (B) Nuclear fractions were prepared and assessed as in FIG. 1B following transduction with the indicated TAT-SNX9(SH3) fusion polypeptide (Left). Quantitation (mean+/−sd) of nuclear pSmad2 or pSmad3 from 2 experiments (Right). (C) Immunofluorescence of nuclear Smad3 was determined as in FIG. 1C from 30 cells in each of two experiments in the absence (−) or presence (+) of 5 ng/mL TGFβ and the indicated TAT-SNX9(SH3) fusion polypeptide (1.5 μM). […]

Assay [1] concerns Smad3 targets (PAI-1, CTGF, Smad7). The assay is described as follows: RT-PCR/qPCR/Western of Smad3 responsive genes in AKR-2B cells. The following applies: 5 ng/mL TGFβ, 24 hours. On the procedure:
(§2) FIGS. 2A-C. TAT-SH3 inhibits Smad3-dependent responses. (A) AKR-2B cells were transiently transfected with a Smad3 (3TP), Smad2 (ARE), or Smad1/5/8 (BRE) reporter construct, and luciferase activity determined following 12 hours incubation in the absence (−) or presence (+) of the indicated ligand (5 ng/mL TGFβ; 10 ng/mL BMP4) or TAT-SNX9(SH3) fusion polypeptide (1.5 μM). Data represent the mean+/−SEM of three experiments. (B) RT-PCR analysis of Smad3 (PAI-1 and CTGF) and Smad2 (MMP2) responsive gene following 24 hour treatment of AKR-2B cells with the indicated concentration of TAT-SNX9(SH3) fusion polypeptide or 5 ng/mL TGFβ. Loading was verified by GAPDH expression. (C) Soft agar colony formation was performed following seven days growth in the presence (+) or absence (−) of TGFβ (10 ng/mL) or the indicated TAT-SNX9(SH3) fusion polypeptide (1.5 μM). […]
as §1
For orientation: Real-time PCR tracks product formation cycle by cycle.

The test system of a further assay is AKR-2B cells. Description: Soft agar colony formation (anchorage-independent growth, AIG). The following applies: 1.5 μM polypeptide, TGFβ 10 ng/mL, seven days. On the procedure: as §2, §1
Another assay has as its target T2, pSmad2 (Mus musculus, UniProt Q62432).
T2 construct: nuclear fractions were isolated, and Western blotted for pSmad2, pSmad3, or histone deacetylase 1 (HDAC); endogenous in cells; host or cells: AKR-2B cells
The assay is described as follows: Nuclear import of pSmad2 (nuclear fractions Western) in AKR-2B cells. The following applies: 90 minutes transduction, TGFβ 5 ng/mL 1 hour. On the procedure: FIGS. 1A-C. SH3 domain of sorting nexin 9 (SNX9) specifically binds pSmad3 and prevents nuclear import. (A) Cartoon depicting domains in full length (FL) SNX9 and constructs used for GST pull down assays. Lysates from AKR-2B cells untreated (−) or stimulated (+) for 45 minutes with 5 ng/mL TGFβ were incubated with GST beads or the indicated fusion polypeptides immobilized on GST beads. Bound polypeptides were eluted and assessed by Western analysis for pSmad3 or pSmad2. Cell lysate reflects signal obtained from 10 μg total protein. (B) AKR-2B cells were transduced for 90 minutes with the indicated concentrations of the TAT-SNX9(SH3) fusion polypeptides. Following washing and 1 hour TGFβ (5 ng/mL) treatment, nuclear fractions were isolated, and Western blotted for pSmad2, pSmad3, or histone deacetylase 1 (HDAC) (Left). Quantitation of nuclear pSmads was performed with Image J software and represents the mean+/−sd of two experiments (Right). (C) AKR-2B cells were transduced as in (B) with TAT-SH3 or TAT-LC (1.8 μM) and treated+/−TGFβ (5 ng/mL) for 1 hour. Immunofluorescence for Smad3 or the HA-tagged TAT-SNX9(SH3) fusion polypeptide was performed, and nuclei were stained with DAPI (Left panels). Quantitation of nuclear Smad3 from 30 cells in each of two experiments (Right).
AKR-2B cells were grown in DMEM supplemented with 10% fetal bovine serum (FBS). […]

A further assay deals with Smad3 (3TP) reporter. Description: Smad3 (3TP) luciferase reporter assay in AKR-2B cells. The following applies: 1.5 μM polypeptide, 5 ng/mL TGFβ, 12 hours. On the procedure: (§3) FIGS. 2A-C. TAT-SH3 inhibits Smad3-dependent responses. (A) AKR-2B cells were transiently transfected with a Smad3 (3TP), Smad2 (ARE), or Smad1/5/8 (BRE) reporter construct, and luciferase activity determined following 12 hours incubation in the absence (−) or presence (+) of the indicated ligand (5 ng/mL TGFβ; 10 ng/mL BMP4) or TAT-SNX9(SH3) fusion polypeptide (1.5 μM). Data represent the mean+/−SEM of three experiments. (B) RT-PCR analysis of Smad3 (PAI-1 and CTGF) and Smad2 (MMP2) responsive gene following 24 hour treatment of AKR-2B cells with the indicated concentration of TAT-SNX9(SH3) fusion polypeptide or 5 ng/mL TGFβ. Loading was verified by GAPDH expression. (C) Soft agar colony formation was performed following seven days growth in the presence (+) or absence (−) of TGFβ (10 ng/mL) or the indicated TAT-SNX9(SH3) fusion polypeptide (1.5 μM). Data reflects the mean+/−sd of triplicate wells from three experiments.
(§4) For luciferase assays, 2×10^5 cells were plated in six well plates containing 10% FBS/DMEM. […] Cells were harvested in 200 μL of reporter lysis buffer (Promega, Madison, Wis.), and luciferase activity was determined in a Berthold Lumat 9507 luminometer after normalization for transfection efficiency with β-galactosidase.

For the next assay, the system named is Smad2 (ARE) reporter. Description: Smad2 (ARE) luciferase reporter assay in AKR-2B cells. The following applies: 1.5 μM polypeptide, 5 ng/mL TGFβ, 12 hours. On the procedure:
as §3, §4
(In general: In a reporter assay the amount or activity of a reporter protein is the signal.)

For another assay, the system named is Smad1/5/8 (BRE) reporter. The assay is described as follows: Smad1/5/8 BMP (BRE) luciferase reporter assay in AKR-2B cells. As to conditions: 1.5 μM polypeptide, 10 ng/mL BMP4, 12 hours. On the procedure:
as §3
FIGS. 4A-E. A point mutant of TAT-SH3-2 abolishes the inhibitory action on Smad3 responses. […] (E) AKR-2B cells were transiently transfected with a BMP (BRE), EGF (SRE), or PDGF (MMP-1) reporter construct and luciferase activity determined following 12 hour incubation in the absence (−) or presence (+) of the indicated ligand (10 ng/mL BMP4, EGF, or PDGF), inhibitor (10 μM Dorsomophin; 3 μM Lapatinib; 2 μM CP868) or TAT-SNX9(SH3) fusion polypeptide (1.5 μM). […]

For assay [2], the system named is Smad2 targets (MMP2, Goosecoid, Furin, MixL). Description: RT-PCR/qPCR of Smad2 responsive genes in AKR-2B cells. As to conditions: 5 ng/mL TGFβ, 24 hours. As to the method: as §2, §1

T1 sequence (Q8BUN5 whole entry): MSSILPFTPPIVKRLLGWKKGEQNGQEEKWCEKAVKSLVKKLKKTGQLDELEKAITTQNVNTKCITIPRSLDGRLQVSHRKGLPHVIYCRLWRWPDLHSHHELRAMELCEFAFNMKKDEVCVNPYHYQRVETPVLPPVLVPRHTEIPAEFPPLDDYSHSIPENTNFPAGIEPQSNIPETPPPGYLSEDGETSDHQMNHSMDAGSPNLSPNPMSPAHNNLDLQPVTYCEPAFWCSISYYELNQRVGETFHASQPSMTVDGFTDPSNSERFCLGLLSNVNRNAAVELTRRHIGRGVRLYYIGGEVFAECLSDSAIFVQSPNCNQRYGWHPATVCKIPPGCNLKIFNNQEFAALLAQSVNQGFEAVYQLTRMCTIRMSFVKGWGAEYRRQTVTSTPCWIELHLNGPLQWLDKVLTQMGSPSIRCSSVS
T2 sequence (Q62432 whole entry): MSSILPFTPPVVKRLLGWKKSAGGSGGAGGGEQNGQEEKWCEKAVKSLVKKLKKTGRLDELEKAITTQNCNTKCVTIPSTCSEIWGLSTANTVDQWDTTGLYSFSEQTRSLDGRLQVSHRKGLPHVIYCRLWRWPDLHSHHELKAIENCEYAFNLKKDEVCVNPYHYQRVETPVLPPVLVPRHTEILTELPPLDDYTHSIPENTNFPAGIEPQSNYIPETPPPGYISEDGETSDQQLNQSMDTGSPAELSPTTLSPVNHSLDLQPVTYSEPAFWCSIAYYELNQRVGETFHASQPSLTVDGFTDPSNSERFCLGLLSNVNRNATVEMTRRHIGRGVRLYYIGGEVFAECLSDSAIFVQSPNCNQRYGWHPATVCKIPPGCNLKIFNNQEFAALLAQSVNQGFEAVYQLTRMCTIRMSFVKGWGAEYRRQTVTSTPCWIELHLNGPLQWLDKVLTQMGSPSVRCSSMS

B1: TAT-LC: SNX9 LC (low complexity) domain fused to cell penetrating TAT polypeptide; negative control (protein)
chain: DGKDQFSCGNSVADQAFLDSLSASTAQASSSAASNNHQVGSGNDPWSAWSASKSGNWESSEGWGAQPEGAGAQRNTNTPNNWDTAFGHPQAYQGPATGDDDDWDEDWDGPKSSSYFKDSESADAGGAQRGNSRASSSSMKI
modifications: left off: a dimerising Fc or GST
Turning to B1, the “nuclear import of pSmad3” value with pSmad3 is reported as “ineffective in modulating nuclear translocation”. Moreover, the “TGFβ induction of Smad3 targets / Smad3-dependent transcriptional responses” value in assay [1] is on record as “inert”. Moreover, the “TGFβ-stimulated anchorage-independent growth in soft agar (AIG)” value with AKR-2B cells is “inert”.

B2: TAT-SH3: TAT-SNX9(SH3) fusion polypeptide containing the full length SH3 domain (amino acids 1 to 62) (protein)
chain: MATKARVMYDFAAEPGNNELTVNEGEIITITNPDVGGGWLEGRNIKGERGLVPTDYVEILPS
modifications: left off: small tags and cut ends
Regarding B2, in the assay with pSmad3, the “nuclear import of pSmad3” value is given as “inhibited nuclear import of pSmad3 in a dose-dependent manner”. The “nuclear import of pSmad2” value with pSmad2 was “no effect”. In the assay with Smad3 (3TP) reporter, the “Smad3-dependent luciferase activity inhibited” value was “about 70%”. Moreover, in the assay with Smad2 (ARE) reporter, the “Smad2 signaling (luciferase)” value is “no discernible effect”. Besides, in the assay with Smad1/5/8 (BRE) reporter, the “Smad1/5/8 (i.e., BMP) signaling (luciferase)” value is “no discernible effect”. Moreover, in assay [1], the “TGFβ induction of Smad3 targets / Smad3-dependent transcriptional responses” value is “inhibited”. In addition, the “induction of Smad2 targets” value in assay [2] is “unaffected”. Besides, in the assay on AKR-2B cells, the “TGFβ-stimulated anchorage-independent growth in soft agar (AIG)” value is on record as “inhibited”.

The values are drawn from patent publication US10144929B2, “Polypeptide inhibitors of Smad3 polypeptide activities” (Mayo Foundation for Medical Education and Research, priority 2016, dated 2018).
